B1: Alpha-taxilin (Homo sapiens), P40222 (parent)
chain: MKNQDKKNGAAKQSNPKSSPGQPEAGPEGAQERPSQAAPAVEAEGPGSSQAPRKPEGAQARTAQSGALRDVSEELSRQLEDILSTYCVDNNQGGPGEDGAQGEPAEPEDAEKSRTYVARNGEPEPTPVVNGEKEPSKGDPNTEEIRQSDEVGDRDHRRPQEKKKAKGLGKEITLLMQTLNTLSTPEEKLAALCKKYAELLEEHRNSQKQMKLLQKKQSQLVQEKDHLRGEHSKAVLARSKLESLCRELQRHNRSLKEEGVQRAREEEEKRKEVTSHFQVTLNDIQLQMEQHNERNSKLRQENMELAERLKKLIEQYELREEHIDKVFKHKDLQQQLVDAKLQQAQEMLKEAEERHQREKDFLLKEAVESQRMCELMKQQETHLKQQLALYTEKFEEFQNTLSKSSEVFTTFKQEMEKMTKKIKKLEKETTMYRSRWESSNKALLEMAEEKTVRDKELEGLQVKIQRLEKLCRALQTERNDLNKRVQDLSAGGQGSLTDSGPERRPEGPGAQAPSSPRVTEAPCYPGAPSTEASGQTGPQEPTSARA
partner: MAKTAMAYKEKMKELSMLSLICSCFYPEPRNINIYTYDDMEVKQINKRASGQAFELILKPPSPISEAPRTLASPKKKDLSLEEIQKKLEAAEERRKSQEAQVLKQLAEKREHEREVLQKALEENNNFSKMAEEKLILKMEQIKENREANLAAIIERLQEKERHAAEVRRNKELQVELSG
B2: X-linked retinitis pigmentosa GTPase regulator (Homo sapiens), Q92834 (parent)
chain: MREPEELMPDSGAVFTFGKSKFAENNPGKFWFKNDVPVHLSCGDEHSAVVTGNNKLYMFGSNNWGQLGLGSKSAISKPTCVKALKPEKVKLAACGRNHTLVSTEGGNVYATGGNNEGQLGLGDTEERNTFHVISFFTSEHKIKQLSAGSNTSAALTEDGRLFMWGDNSEGQIGLKNVSNVCVPQQVTIGKPVSWISCGYYHSAFVTTDGELYVFGEPENGKLGLPNQLLGNHRTPQLVSEIPEKVIQVACGGEHTVVLTENAVYTFGLGQFGQLGLGTFLFETSEPKVIENIRDQTISYISCGENHTALITDIGLMYTFGDGRHGKLGLGLENFTNHFIPTLCSNFLRFIVKLVACGGCHMVVFAAPHRGVAKEIEFDEINDTCLSVATFLPYSSLTSGNVLQRTLSARMRRRERERSPDSFSMRRTLPPIEGTLGLSACFLPNSVFPRCSERNLQESVLSEQDLMQPEEPDYLLDEMTKEAEIDNSSTVESLGETTDILNMTHIMSLNSNEKSLKLSPVQKQKKQQTIGELTQDTALTENDDSDEYEEMSEMKEGKACKQHVSQGIFMTQPATTIEAFSDEEVGNDTGQVGPQADTDGEGLQKEVYRHENNNGVDQLDAKEIEKESDGGHSQKESEAEEIDSEKETKLAEIAGMKDLREREKSTKKMSPFFGNLPDRGMNTESEENKDFVKKRESCKQDVIFDSERESVEKPDSYMEGASESQQGIADGFQQPEAIEFSSGEKEDDEVETDQNIRYGRKLIEQGNEKETKPIISKSMAKYDFKCDRLSEIPEEKEGAEDSKGNGIEEQEVEANEENVKVHGGRKEKTEILSDDLTDKAEDHEFSKTEELKLEDVDEEINAENVESKKKTVGDDESVPTGYHSKTEGAERTNDDSSAETIEKKEKANLEERAICEYNENPKGYMLDDADSSSLEILENSETTPSKDMKKTKKIFLFKRVPSINQKIVKNNNEPLPEIKSIGDQIILKSDNKDADQNHMSQNHQNIPPTNTERRSKSCTIL
partner: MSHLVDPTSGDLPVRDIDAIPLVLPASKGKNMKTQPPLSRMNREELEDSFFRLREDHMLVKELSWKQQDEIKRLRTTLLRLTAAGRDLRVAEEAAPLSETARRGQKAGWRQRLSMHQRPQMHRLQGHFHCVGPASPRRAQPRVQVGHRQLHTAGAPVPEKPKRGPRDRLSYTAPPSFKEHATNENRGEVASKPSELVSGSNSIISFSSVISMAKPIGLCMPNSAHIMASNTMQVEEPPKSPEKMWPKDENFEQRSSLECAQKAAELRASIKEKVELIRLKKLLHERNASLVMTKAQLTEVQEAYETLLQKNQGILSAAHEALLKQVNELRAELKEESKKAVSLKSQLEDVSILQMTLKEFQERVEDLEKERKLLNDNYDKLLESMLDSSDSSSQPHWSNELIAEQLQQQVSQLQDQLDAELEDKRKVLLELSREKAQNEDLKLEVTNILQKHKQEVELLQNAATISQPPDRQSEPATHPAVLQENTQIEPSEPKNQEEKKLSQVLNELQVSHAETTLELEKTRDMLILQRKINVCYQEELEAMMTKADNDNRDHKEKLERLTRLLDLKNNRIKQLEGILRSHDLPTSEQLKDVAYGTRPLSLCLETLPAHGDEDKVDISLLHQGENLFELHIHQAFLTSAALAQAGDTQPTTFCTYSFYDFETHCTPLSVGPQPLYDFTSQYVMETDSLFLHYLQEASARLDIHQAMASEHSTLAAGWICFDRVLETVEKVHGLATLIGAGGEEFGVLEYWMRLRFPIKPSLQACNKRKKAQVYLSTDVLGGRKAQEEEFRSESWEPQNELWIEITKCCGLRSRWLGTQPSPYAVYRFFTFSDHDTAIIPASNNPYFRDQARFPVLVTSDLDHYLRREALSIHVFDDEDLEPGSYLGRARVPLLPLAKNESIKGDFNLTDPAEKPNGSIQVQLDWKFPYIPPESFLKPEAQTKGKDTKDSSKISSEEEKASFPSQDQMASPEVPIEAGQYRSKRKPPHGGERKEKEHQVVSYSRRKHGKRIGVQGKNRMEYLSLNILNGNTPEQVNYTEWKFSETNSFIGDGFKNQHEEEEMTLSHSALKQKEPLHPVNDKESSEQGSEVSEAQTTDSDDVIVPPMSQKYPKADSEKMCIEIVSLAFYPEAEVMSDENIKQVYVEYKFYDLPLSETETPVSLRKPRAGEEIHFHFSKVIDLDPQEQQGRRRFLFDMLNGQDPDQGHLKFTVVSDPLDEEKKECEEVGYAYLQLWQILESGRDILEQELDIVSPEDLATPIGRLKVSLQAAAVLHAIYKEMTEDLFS

Variants of: B1
Conditions: with stmn2_human STMN2, Q93045

Effect of a mutation on the interaction, with no effect:
S514R
P541S

Variants of: B2
Conditions: with rpgr1_human RPGRIP1, Q96KN7

Effect of a mutation on the interaction, with no effect:
C302S
I431V
I75V
Q456R

From IntAct's records for PubMed 31515488
